Read-outs that look alike come from different tables or passages of the source.
What was measured:
[1] = target: proEGF on the surface of NCI-H292 cell membranes (human) (UniProt P01133); assay: flow cytometry on NCI-H292 cells, background staining with normal mouse IgG1
[2] = target: proEGF on the surface of NCI-H292 cell membranes (human) (UniProt P01133); assay: as above; remark: listed apart in the source

Chain of UniProt P01133 (P01133 23-1207): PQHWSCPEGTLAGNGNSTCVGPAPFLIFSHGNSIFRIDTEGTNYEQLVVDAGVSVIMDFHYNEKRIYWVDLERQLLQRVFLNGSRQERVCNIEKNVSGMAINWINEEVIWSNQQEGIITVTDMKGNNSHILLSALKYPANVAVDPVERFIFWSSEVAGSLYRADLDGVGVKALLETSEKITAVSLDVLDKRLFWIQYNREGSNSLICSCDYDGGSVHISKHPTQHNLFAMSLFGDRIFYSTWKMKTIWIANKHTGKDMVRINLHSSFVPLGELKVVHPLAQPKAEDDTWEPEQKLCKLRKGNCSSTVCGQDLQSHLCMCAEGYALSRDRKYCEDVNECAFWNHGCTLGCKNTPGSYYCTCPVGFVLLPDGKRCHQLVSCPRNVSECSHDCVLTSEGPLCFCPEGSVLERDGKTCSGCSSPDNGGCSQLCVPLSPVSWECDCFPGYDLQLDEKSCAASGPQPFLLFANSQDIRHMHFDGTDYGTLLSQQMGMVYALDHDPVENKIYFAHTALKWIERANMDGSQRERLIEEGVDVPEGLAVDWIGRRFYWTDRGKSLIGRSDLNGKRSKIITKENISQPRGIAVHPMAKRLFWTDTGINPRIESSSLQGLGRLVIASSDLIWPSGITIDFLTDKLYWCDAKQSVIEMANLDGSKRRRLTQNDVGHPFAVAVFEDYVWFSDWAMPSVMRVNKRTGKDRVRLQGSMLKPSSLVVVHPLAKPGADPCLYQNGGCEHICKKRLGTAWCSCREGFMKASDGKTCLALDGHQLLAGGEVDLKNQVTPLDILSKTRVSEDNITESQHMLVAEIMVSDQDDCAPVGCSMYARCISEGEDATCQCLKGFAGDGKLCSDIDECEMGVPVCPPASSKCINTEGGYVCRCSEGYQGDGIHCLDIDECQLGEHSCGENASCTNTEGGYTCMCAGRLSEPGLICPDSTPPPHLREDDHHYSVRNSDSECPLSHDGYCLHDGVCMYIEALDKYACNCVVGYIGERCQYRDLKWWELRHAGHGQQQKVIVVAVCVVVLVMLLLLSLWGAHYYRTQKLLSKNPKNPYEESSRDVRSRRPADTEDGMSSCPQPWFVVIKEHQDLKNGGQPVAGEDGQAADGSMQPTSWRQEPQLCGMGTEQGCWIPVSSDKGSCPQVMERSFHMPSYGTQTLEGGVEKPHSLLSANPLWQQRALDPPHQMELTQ

- average fluorescence intensity [1]: 8.44
- average fluorescence intensity [2]: 4.62
Substance: normal mouse IgG1 (produced by R&D Corp.) (antibody)

Reference: EP1314779B1
